PMC2700855 (Proteins, 2009)
Blank lines part the entries; values can stand above or below the binder they belong to.

B1: RFXB (natural protein, UniProt O14593 1-260, looked up)
chain: MELTQPAEDLIQTQQTPASELGDPEDPGEEAADGSDTVVLSLFPCTPEPVNPEPDASVSSPQAGSSLKHSTTLTNRQRGNEVSALPATLDSLSIHQLAAQGELDQLKEHLRKGDNLVNKPDERGFTPLIWASAFGEIETVRFLLEWGADPHILAKERESALSLASTGGYTDIVGLLLERDVDINIYDWNGGTPLLYAVRGNHVKCVEALLARGADLTTEADSGYTPMDLAVALGYRKVQQVIENHILKLFQSNLVPADPE
B2: RFXAP(215-272,F217Y) (domain or fragment, UniProt O00287 215-272, looked up)
chain: GSYGDRPARPTLLEQVLNQKRLSLLRSPEVVQFLQKQQQLLNQQVLEQRQQQFPGTSM
B3: RFX5(88-330) (domain or fragment, UniProt P48382 88-330, looked up)
chain: EYMYAYRWIRNHLEEHTDTCLPKQSVYDAYRKYCESLACCRPLSTANFGKIIREIFPDIKARRLGGRGQSKYCYSGIRRKTLVSMPPLPGLDLKGSESPEMGPEVTPAPRDELVEAACALTCDWAERILKRSFSSIVEVARFLLQQHLISARSAHAHVLKAMGLAEEDEHAPRERSSKPKNGLENPEGGAHKKPERLAQPPKDLEARTGAGPLARGERKKSVVESSAPGANNLQVNALVARLP
B6: RFXB(88-260) (domain or fragment, UniProt O14593 88-260, looked up)
chain: TLDSLSIHQLAAQGELDQLKEHLRKGDNLVNKPDERGFTPLIWASAFGEIETVRFLLEWGADPHILAKERESALSLASTGGYTDIVGLLLERDVDINIYDWNGGTPLLYAVRGNHVKCVEALLARGADLTTEADSGYTPMDLAVALGYRKVQQVIENHILKLFQSNLVPADPE
B7: RFX5(25-90) (domain or fragment, UniProt P48382 25-90, looked up)
chain: GEPTTLLQRLRGTISKAVQNKVEGILQDVQKFSDNDKLYLYLQLPSGPTTGDKSSEPSTLSNEEYM
B8: RFX5(1-330) (domain or fragment, UniProt P48382 1-330, looked up)
chain: MAEDEPDAKSPKTGGRAPPGGAEAGEPTTLLQRLRGTISKAVQNKVEGILQDVQKFSDNDKLYLYLQLPSGPTTGDKSSEPSTLSNEEYMYAYRWIRNHLEEHTDTCLPKQSVYDAYRKYCESLACCRPLSTANFGKIIREIFPDIKARRLGGRGQSKYCYSGIRRKTLVSMPPLPGLDLKGSESPEMGPEVTPAPRDELVEAACALTCDWAERILKRSFSSIVEVARFLLQQHLISARSAHAHVLKAMGLAEEDEHAPRERSSKPKNGLENPEGGAHKKPERLAQPPKDLEARTGAGPLARGERKKSVVESSAPGANNLQVNALVARLP

Tests used:
RFX5(1-330) = target: B8; assay: SEC
RFXAP = target: T1, RFXAP (UniProt O00287 1-272); assay: SEC
T1 sequence (looked up): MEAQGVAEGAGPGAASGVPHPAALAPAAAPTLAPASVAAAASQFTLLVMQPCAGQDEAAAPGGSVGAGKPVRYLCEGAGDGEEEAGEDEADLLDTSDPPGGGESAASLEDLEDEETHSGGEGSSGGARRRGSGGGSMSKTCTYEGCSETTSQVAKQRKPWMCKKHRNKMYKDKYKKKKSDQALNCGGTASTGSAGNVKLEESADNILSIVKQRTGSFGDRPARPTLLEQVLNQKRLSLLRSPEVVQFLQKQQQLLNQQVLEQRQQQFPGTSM

RFX5(25-90) = target: B7; assay: SEC
RFXB(88-260) = target: B6; assay: SEC-MALS
RFXB = target: B1; assay: SEC
SEC-MALS = target: the molecule itself; assay: SEC-MALS
[1] = target: RFX5(25-90)2•RFXAP(215-272) complex (UniProt P48382); assay: ITC
RFX5(88-330) = target: B3; assay: SEC
[2] = target: RFX5(25-90)2•RFXAP(215-272) complex (UniProt P48382); assay: SEC-MALS; settings: scale: RFXB(88-260) per RFX5(25-90)2•RFXAP(215-272)
RFXAP(215-272,F217Y) = target: B2; assay: SEC-MALS
cross-linking [3] = target: the molecule itself; assay: cross-linking
cross-linking [4] = target: the molecule itself; assay: cross-linking; remark: listed apart in the source
SEC = target: the molecule itself; assay: SEC

Binder: B1
- binding result (RFX5(1-330)): binds
- binding result (RFXAP): binds

Binder: B2
- binding result (RFX5(25-90)): binds
- binding result (RFXB(88-260)): binds

Binder: B3
- binding result (RFXB): binds

- binding result (RFXAP): binds
B4: RFX5(1-90) (domain or fragment, UniProt P48382 1-90, looked up)
chain: MAEDEPDAKSPKTGGRAPPGGAEAGEPTTLLQRLRGTISKAVQNKVEGILQDVQKFSDNDKLYLYLQLPSGPTTGDKSSEPSTLSNEEYM

B5: RFX5(187-265) (domain or fragment, UniProt P48382 187-265, looked up)
chain: EMGPEVTPAPRDELVEAACALTCDWAERILKRSFSSIVEVARFLLQQHLISARSAHAHVLKAMGLAEEDEHAPRERSSK
- stoichiometry N (SEC-MALS): 2

Binder: B6
- Kd [1]: 75.5 nM
- stoichiometry N [1]: 1.02
- binding result (RFX5(88-330)): binds
- stoichiometry N [2]: 1

Binder: B7
- stoichiometry N (RFXAP(215-272,F217Y)): 2 RFX5(25-90) per RFXAP(215-272)
- stoichiometry N (cross-linking [3]): 2
- stoichiometry N (cross-linking [4]): 4

Binder: B8
- stoichiometry N (SEC): 2
